Laboratory results reported in paper PMC3649970, “A Unique Spumavirus Gag N-terminal Domain with Functional Properties of Orthoretroviral Matrix and Capsid” (PLoS Pathogens, 2013).

What was measured:
[1] = target: T1, PFV-Gag-NtD (amino terminal domain of Prototypic Foamy Virus Gag, residues 1-179) (Prototypic foamy virus (PFV), UniProt P14349 1-179); experiment: AUC
T1 chain: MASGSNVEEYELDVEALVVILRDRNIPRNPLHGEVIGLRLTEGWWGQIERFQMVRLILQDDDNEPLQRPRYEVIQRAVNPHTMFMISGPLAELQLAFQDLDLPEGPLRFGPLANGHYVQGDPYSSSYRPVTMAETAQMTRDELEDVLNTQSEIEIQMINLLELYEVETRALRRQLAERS

[2] = target: T2, PFV-Gag-NtD (amino terminal domain of Prototypic Foamy Virus Gag, residues 1-179) (Prototypic foamy virus (PFV), UniProt P14349 1-179); experiment: ITC; ITC-200; 1 mM Env peptide in the syringe injected into 50 µM PFV-Gag-NtD in the cell; 25 mM Na-phosphate pH 6.55, 100 mM NaCl, 0.5 mM TCEP; settings: both partners purified
T2 construct: source: E. coli Rosetta 2 (DE3), purified (Ni-NTA, Superdex 200 SEC); not shown: His-tag, N-terminal, kept
T2 sequence: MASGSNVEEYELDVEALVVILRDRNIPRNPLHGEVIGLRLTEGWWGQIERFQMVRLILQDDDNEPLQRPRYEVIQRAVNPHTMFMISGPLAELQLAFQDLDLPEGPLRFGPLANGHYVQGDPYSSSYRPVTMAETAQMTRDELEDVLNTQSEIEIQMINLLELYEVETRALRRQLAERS

PFV-Gag-NtD L21N = target: T3, PFV-Gag-NtD L21N (Prototypic foamy virus (PFV), UniProt P14349 1-179, L21N); experiment: AUC; sedimentation velocity of 75 µM equimolar mixtures of Gag-NtD and Env peptide, absorbance at 280 nm; bound fraction from the integrated absorbance of the 3S species in C(S); settings: both partners purified
T3 construct: Gag of Prototypic Foamy Virus, residues 1-179 (Gag-NtD) with L21N
T3 sequence (looked up): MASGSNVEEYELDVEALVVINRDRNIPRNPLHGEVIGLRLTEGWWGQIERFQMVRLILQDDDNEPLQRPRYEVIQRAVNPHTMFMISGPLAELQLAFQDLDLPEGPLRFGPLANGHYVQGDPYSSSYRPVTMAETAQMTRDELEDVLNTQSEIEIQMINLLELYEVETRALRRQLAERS

PFV-Gag-NtD V18S/L21S = target: T4, PFV-Gag-NtD V18S/L21S (Prototypic foamy virus (PFV), UniProt P14349 1-179, V18S | L21S); experiment: as above; settings: both partners purified
T4 construct: Gag of Prototypic Foamy Virus, residues 1-179 (Gag-NtD) with V18S and L21S
T4 sequence (looked up): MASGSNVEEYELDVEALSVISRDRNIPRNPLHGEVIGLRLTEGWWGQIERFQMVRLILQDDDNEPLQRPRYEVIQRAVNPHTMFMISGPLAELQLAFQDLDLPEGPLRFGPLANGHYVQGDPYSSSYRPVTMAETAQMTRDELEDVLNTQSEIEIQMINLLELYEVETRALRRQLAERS

PFV-Gag-NtD N29Q = target: T5, PFV-Gag-NtD N29Q (Prototypic foamy virus (PFV), UniProt P14349 1-179, N29Q); experiment: as above; settings: both partners purified
T5 construct: Gag of Prototypic Foamy Virus, residues 1-179 (Gag-NtD) with N29Q
T5 sequence (looked up): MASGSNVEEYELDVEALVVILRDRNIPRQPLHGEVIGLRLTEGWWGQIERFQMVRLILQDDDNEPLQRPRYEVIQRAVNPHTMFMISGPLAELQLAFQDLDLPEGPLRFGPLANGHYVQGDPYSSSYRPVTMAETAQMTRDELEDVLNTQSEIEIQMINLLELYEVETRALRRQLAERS

PFV-Gag-NtD L17S = target: T6, PFV-Gag-NtD L17S (Prototypic foamy virus (PFV), UniProt P14349 1-179, L17S); experiment: as above; settings: both partners purified
T6 construct: Gag of Prototypic Foamy Virus, residues 1-179 (Gag-NtD) with L17S
T6 sequence (looked up): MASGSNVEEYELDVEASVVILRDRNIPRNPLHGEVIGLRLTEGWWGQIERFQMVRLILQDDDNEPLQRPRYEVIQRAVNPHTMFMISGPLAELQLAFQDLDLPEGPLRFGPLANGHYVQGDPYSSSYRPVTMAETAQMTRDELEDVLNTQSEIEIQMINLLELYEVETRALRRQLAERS

PFV-Gag-NtD V18S = target: T7, PFV-Gag-NtD V18S (Prototypic foamy virus (PFV), UniProt P14349 1-179, V18S); experiment: as above; settings: both partners purified
T7 construct: Gag of Prototypic Foamy Virus, residues 1-179 (Gag-NtD) with V18S
T7 sequence (looked up): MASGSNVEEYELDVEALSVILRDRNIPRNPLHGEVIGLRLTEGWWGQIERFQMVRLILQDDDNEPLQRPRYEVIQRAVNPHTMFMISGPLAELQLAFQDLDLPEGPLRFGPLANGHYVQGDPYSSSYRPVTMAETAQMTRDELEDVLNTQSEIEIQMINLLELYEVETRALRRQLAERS

PFV-Gag-NtD L21S = target: T8, PFV-Gag-NtD L21S (Prototypic foamy virus (PFV), UniProt P14349 1-179, L21S); experiment: as above; settings: both partners purified
T8 construct: Gag of Prototypic Foamy Virus, residues 1-179 (Gag-NtD) with L21S
T8 sequence (looked up): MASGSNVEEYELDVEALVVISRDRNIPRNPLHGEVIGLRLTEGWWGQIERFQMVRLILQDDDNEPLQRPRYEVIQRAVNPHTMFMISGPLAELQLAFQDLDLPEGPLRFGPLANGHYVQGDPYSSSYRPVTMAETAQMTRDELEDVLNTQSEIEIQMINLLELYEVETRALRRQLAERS

B1: PFV Env leader peptide residues 1-20 (peptide, UniProt P14351 1-20, looked up)
peptide: MAPPMTLQQWIIWKKMNKAH
notes: Envelope (Env) protein of Prototypic Foamy Virus, N-terminal leader peptide region, residues 1-20 (Met1 to His20); the text names M1, A2, P3, P4, M5, T6, L7, Q9, W10, W13, M16, A19, H20; also called Env_(1-20); Env(1-20); source: synthetic peptide, bought HPLC purified: Pepceuticals Ltd
[1]
  Kd: 7.5 µM
[2]
  Ka: 150000 M⁻¹
  stoichiometry N: 1
PFV-Gag-NtD L21N
  binding result: binds
PFV-Gag-NtD V18S/L21S
  binding result: binds
PFV-Gag-NtD N29Q
  binding result: binds
PFV-Gag-NtD L17S
  fold decrease of affinity against wt PFV-Gag-NtD: 2 fold
PFV-Gag-NtD V18S
  fold decrease of affinity against wt PFV-Gag-NtD: 2 fold
PFV-Gag-NtD L21S
  fold decrease of affinity against wt PFV-Gag-NtD: 5 fold
